Measurements published in patent US20240261333A1 (published 2024).
One block for each binder: values may come before it.

Tests used:
Test in all cases: co-IP with anti-FLAG, N-FLAG B3GNT2, mass spectrometry
[1] = target: RPS26 (human, UniProt P62854 2-115)
[2] = target: T1, SYNM (human, UniProt O15061 1-1565)
T1 construct: also called NP_663780.2

[3] = target: T2, PURA (human, UniProt Q00577 2-322)
T2 construct: also called NP_005850.1
T2 sequence (looked up): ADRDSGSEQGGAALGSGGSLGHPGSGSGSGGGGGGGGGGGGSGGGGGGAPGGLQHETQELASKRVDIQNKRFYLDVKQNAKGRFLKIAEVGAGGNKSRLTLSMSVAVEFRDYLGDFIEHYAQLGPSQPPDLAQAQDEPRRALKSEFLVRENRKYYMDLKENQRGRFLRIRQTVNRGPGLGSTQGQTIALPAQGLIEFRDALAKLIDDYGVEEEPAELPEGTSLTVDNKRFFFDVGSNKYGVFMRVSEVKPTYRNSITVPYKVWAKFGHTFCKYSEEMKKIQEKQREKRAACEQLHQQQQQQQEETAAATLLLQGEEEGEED

[4] = target: T3, TPM2 (human, UniProt P07951-2 1-284, limits assumed)
T3 construct: also called NP_001288155.1

[5] = target: T4, NAP1L1 (human, UniProt P55209 2-388)
T4 construct: also called NP_001294853.1 (+1)
T4 sequence (looked up): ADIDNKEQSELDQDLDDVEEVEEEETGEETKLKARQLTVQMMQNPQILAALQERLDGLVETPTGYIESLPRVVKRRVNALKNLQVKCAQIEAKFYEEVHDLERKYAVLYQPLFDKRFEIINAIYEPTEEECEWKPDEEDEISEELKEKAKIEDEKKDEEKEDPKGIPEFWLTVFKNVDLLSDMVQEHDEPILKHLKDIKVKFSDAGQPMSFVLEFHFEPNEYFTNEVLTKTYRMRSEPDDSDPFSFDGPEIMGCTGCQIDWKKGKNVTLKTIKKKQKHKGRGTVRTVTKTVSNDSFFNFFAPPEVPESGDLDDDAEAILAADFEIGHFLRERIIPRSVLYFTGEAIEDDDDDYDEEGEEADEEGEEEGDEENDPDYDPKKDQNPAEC

[6] = target: T5, PUF60 (human, UniProt Q9UHX1 1-559, limits assumed)
T5 construct: also called NP_016868724.1
T5 sequence (looked up): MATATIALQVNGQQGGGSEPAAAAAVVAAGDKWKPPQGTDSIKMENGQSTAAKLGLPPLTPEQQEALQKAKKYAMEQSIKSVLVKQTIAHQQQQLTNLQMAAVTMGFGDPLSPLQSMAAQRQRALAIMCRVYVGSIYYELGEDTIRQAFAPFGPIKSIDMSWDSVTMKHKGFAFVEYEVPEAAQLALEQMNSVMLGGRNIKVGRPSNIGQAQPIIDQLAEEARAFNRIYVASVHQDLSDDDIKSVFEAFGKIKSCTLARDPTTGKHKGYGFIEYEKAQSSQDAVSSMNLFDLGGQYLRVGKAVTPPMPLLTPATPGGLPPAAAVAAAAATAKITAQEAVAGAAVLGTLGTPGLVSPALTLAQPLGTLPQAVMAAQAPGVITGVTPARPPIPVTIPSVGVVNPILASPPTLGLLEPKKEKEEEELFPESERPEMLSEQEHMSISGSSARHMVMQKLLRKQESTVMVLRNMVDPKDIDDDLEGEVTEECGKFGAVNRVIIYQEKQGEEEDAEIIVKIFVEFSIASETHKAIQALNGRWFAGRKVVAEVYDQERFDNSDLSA

co-IP mass spectrometry count [1]: 6
co-IP mass spectrometry count [2]: 5
B1: N-terminal FLAG tagged B3GNT2 (enzyme, human, UniProt Q9NY97 1-397, looked up)
chain: MSVGRRRIKLLGILMMANVFIYFIMEVSKSSSQEKNGKGEVIIPKEKFWKISTPPEAYWNREQEKLNRQYNPILSMLTNQTGEAGRLSNISHLNYCEPDLRVTSVVTGFNNLPDRFKDFLLYLRCRNYSLLIDQPDKCAKKPFLLLAIKSLTPHFARRQAIRESWGQESNAGNQTVVRVFLLGQTPPEDNHPDLSDMLKFESEKHQDILMWNYRDTFFNLSLKEVLFLRWVSTSCPDTEFVFKGDDDVFVNTHHILNYLNSLSKTKAKDLFIGDVIHNAGPHRDKKLKYYIPEVVYSGLYPPYAGGGGFLYSGHLALRLYHITDQVHLYPIDDVYTGMCLQKLGLVPEKHKGFRTFDIEEKNKNNICSYVDLMLVHSRKPQEMIDIWSQLQSAHLKC
notes: FLAG-tagged ORF overexpressed in cells; pulled down from lysate with mouse anti-FLAG; also called N-FLAG B3GNT2; N-term FLAG; not shown: N-terminal FLAG tag

co-IP/MS count, N-term FLAG [3]: 0
co-IP/MS count, N-term FLAG [4]: 0
co-IP/MS count, N-term FLAG [5]: 0
co-IP/MS count, N-term FLAG [6]: 6
B2: N-terminal FLAG tagged B3GNT2 (enzyme, human, UniProt Q9NY97 1-397, looked up)
chain: B1 chain
notes: FLAG-tagged ORF overexpressed in A375 cells; pulled down from the lysate with mouse anti-FLAG; also called N-FLAG B3GNT2; N-term FLAG; not shown: N-terminal FLAG tag
